Data taken from PMC11480844 (2024).

B1: H2-Kb / F4 (parent complex)
chain 1: QQQVRQSPQSLTVWEGETAILNCSYEDSTFNYFPWYQQFPGEGPALLISIRSVSDKKEDGRFTIFFNKREKKLSLHITDSQPGDSATYFCAAMSNYNVLYFGSGTKLTVEP
chain 2: ETAVFQTPNYHVTQVGNEVSFNCKQTLGHDTMYWYKQDSKKLLKIMFSYNNKQLIVNETVPRRFSPQSSDKAHLNLRIKSVEPEDSAVYLCASSARQNSPLYFAAGTRLTVT
chain 3: not shown
chain 4: IQKTPQIQVYSRHPPENGKPNILNCYVTQFHPPHIEIQMLKNGKKIPKVEMSDMSFSKDWSFYILAHTEFTPTETDTYACRVKHDSMAEPKTVYWDRDM
chain 5: SIINFEKL
B2: H2-Kb / Ed8 (parent complex)
chain 1: AQSVTQPDARVTVSEGASLQLRCKYSYFGTPYLFWYVQYPRQGLQLLLKYYPGDPVVQGVNGFEAEFSKSNSSFHLRKASVHWSDWAVYFCAVSPGSGGKLTLGAGTRLQVNL
chain 2: DSGVVQSPRHIIKEKGGRSVLTCIPISGHSNVVWYQQTLGKELKFLIQHYEKVERDKGFLPSRFSVQQFDDYHSEMNMSALELEDSAMYFCASSPRASNYTFGSGTRLLVI
chain 3: not shown
chain 4: B1 chain 4
chain 5: SIINFEKL

Variants of: B1
Test: % of reporter cells activated (NFAT-GFP), raw
Note: test concentration or dose not given here.

Variant | ratio to parent
chain 5 L8D | 0.312
chain 5 L8G | 0.564
chain 5 L8T | 0.614
chain 5 L8K | 0.352
chain 5 L8C | 0.783
chain 5 L8F | 0.564
chain 5 L8H | 0.805
chain 5 N4G | 0.225
chain 5 N4Y | 0.0299
chain 5 N4R | 0.0277
chain 5 N4L | 0.0594
chain 5 N4Q | 0.0116
chain 5 N4W | 0.0415
chain 5 N4C | 0.0522
chain 5 N4M | 0.021
chain 5 F5G | 0.264
chain 5 F5C | 1.29
chain 5 F5E | 0.0661
chain 5 F5T | 1.19
chain 5 F5H | 1.01

Variant | ratio to parent
chain 5 F5M | 1.29
chain 5 F5P | 0.0353
chain 5 F5L | 0.554
chain 5 S1M | 0.0268
chain 5 S1V | 0.0638
chain 5 S1G | 0.188
chain 5 S1A | 0.0272
chain 5 S1F | 0.0348
chain 5 S1Q | 0.0344
chain 5 S1D | 0.0189
chain 5 E6P | 0.0487
chain 5 E6A | 0.05
chain 5 E6Y | 0.0161
chain 5 E6F | 0.033
chain 5 E6W | 0.113
chain 5 I3H | 0.0214
chain 5 I3E | 0.0777
chain 5 I3P | 0.083
chain 5 I3A | 0.467
chain 5 I3N | 0.188

Variant | ratio to parent
chain 5 I3S | 0.106
chain 5 I3V | 1.74
chain 5 I3M | 0.125
chain 5 I3C | 0.558
chain 5 I2F | 0.955
chain 5 I2C | 2.17
chain 5 I2P | 0.16
chain 5 I2A | 1.38
chain 5 I2R | 0.393
chain 5 I2T | 0.773
chain 5 I2M | 0.617
chain 5 I2H | 0.0964
chain 5 I2V | 1.94
chain 5 I2Y | 0.108
chain 5 K7V | 0.927
chain 5 K7P | 0.0549
chain 5 K7C | 0.377
chain 5 K7N | 0.254
chain 5 K7H | 1.35

Further lines, results first:

ratio to parent | Variant
0.355 | chain 5 L8E
0.903 | chain 5 L8I
0.0308 | chain 5 N4A
0.0246 | chain 5 N4P
0.0362 | chain 5 N4V
0.0228 | chain 5 N4E
0.0205 | chain 5 N4I
0.526 | chain 5 F5Y
0.285 | chain 5 F5R
1.36 | chain 5 F5I
0.129 | chain 5 F5D
0.0259 | chain 5 S1R
0.029 | chain 5 S1E
0.0174 | chain 5 S1I
0.0263 | chain 5 S1L
0.0768 | chain 5 S1Y
0.0237 | chain 5 E6G
0.0897 | chain 5 E6R
0.0214 | chain 5 E6M
0.0263 | chain 5 E6H
0.0232 | chain 5 E6V
0.262 | chain 5 I3K
2.05 | chain 5 I3L
0.305 | chain 5 I2N
0.406 | chain 5 I2D
0.641 | chain 5 I2W
0.517 | chain 5 K7W
0.417 | chain 5 K7Q
0.105 | chain 5 K7E
1.03 | chain 5 K7Y

Variants of: B2
Test: % of reporter cells activated (NFAT-GFP), raw

Variant | ratio to parent
chain 5 F5L | 1.41
chain 5 F5D | 1.12
chain 5 F5C | 1.3
chain 5 F5P | 1.16
chain 5 F5T | 1.32
chain 5 F5G | 1.03
chain 5 S1Q | 1.24
chain 5 S1T | 1.37
chain 5 S1V | 1.15
chain 5 S1M | 1.27
chain 5 I2Y | 1.06
chain 5 I2E | 1.34
chain 5 I2D | 1.39
chain 5 I2K | 1.18
chain 5 I2C | 1.33
chain 5 I3R | 0.541
chain 5 E6C | 0.0436
chain 5 E6Y | 0.606

Variant | ratio to parent
chain 5 E6W | 0.012
chain 5 E6R | 0.459
chain 5 E6A | 0.678
chain 5 K7V | 0.73
chain 5 K7S | 0.898
chain 5 K7E | 0.0642
chain 5 K7I | 0.698
chain 5 K7P | 0.689
chain 5 K7H | 1.25
chain 5 N4E | 0.336
chain 5 N4W | 0.00716
chain 5 N4H | 0.155
chain 5 N4P | 0.00499
chain 5 N4A | 0.255
chain 5 N4S | 0.216
chain 5 N4R | 0.442
chain 5 L8I | 1.15
chain 5 L8D | 0.903

The remaining lines, values ahead:

ratio to parent | Variant
1.09 | chain 5 F5V
1.12 | chain 5 F5W
1.13 | chain 5 S1P
1.05 | chain 5 S1W
1.28 | chain 5 S1G
0.917 | chain 5 S1L
1.16 | chain 5 I2W
1.06 | chain 5 I2Q
1.37 | chain 5 I2L
1.16 | chain 5 I2R
1.26 | chain 5 I2N
1.25 | chain 5 I3P
1.4 | chain 5 I3H
1.3 | chain 5 I3L
1.14 | chain 5 I3A
0.0189 | chain 5 E6V
0.453 | chain 5 E6M
0.578 | chain 5 K7M
0.393 | chain 5 K7F
0.616 | chain 5 K7G
0.815 | chain 5 K7L
0.00512 | chain 5 N4Q
0.84 | chain 5 N4L
0.262 | chain 5 N4T
1.12 | chain 5 L8F
